Key:
[1] = system: 4060 peptide (eighteen-residue peptide, residues 40-57 of human Skp2)
[2] = system: Peptide RxL
[3] = biological target: insect cell-produced and purified GST-cyclin A/Cdk2 (kinase reactions, ~3 nM) (UniProt P20248); assay: kinase inhibition: purified proteins, ~3 nM GST-cyclin A/Cdk2, Rb-C phosphorylation, non-linear least squares (FIG. 7F)

Chain of purified p27 (GST cleaved off by thrombin) (P46527 whole entry): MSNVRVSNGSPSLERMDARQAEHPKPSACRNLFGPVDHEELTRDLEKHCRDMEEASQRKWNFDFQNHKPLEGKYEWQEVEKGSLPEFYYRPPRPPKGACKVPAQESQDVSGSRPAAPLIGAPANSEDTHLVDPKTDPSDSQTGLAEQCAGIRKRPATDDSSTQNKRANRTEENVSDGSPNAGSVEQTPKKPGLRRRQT

Row | Substance | IP-kinase assay, phosphorylation of Rb-C by cyclin A/Cdk2 [1] | IP-kinase assay, phosphorylation of Rb-C by cyclin A/Cdk2 [2] | Ki [3] [nM]
1 | myc-cyclin A/Cdk2 (293T cell extracts transfected with myc-cyclin A and Cdk2) | the 4060 peptide did not | the RxL peptide inhibited the kinase activity of cyclin A/Cdk2 towards Rb-C as expected | 
2 | purified p27 (GST cleaved off by thrombin) (from UniProt P46527 1-198) (other; other documents disagree on this pair) |  |  | 2

From patent US8173604
